{
  "source": "the RNAGym collection of RNA variant scans (doi:10.7554/elife.90254)",
  "parents": {"B1": {"name": "LINE1-full (parent)", "chain": "UACGUAGGUGGUUUUCCCCUGAUAGUGCUAAGGGGGCCUGGAAGUUUGGACUGGGCAGAGCUCAACACAGCGUGGCAAAGUGGCUGUGGCUAGACUGCCUCUCUGGAUUCCUCGUCACUCAGCAGGGCAUCUCUGAGAGAAAUGCC"}},
  "data": [
    {"variants_of": "B1", "assay": "self-cleavage, relative activity (ratio to wild type); higher = more cleavage; in vitro, sequencing; the parent is a self-cleaving ribozyme", "values": [
      {"variant": "CACGUAGGUGGUUUUCCCCUGAUAGUGCUAAGGGGGCCUGGAAGUUUGGACUGGGCAGAGCUCAACACAGCGUGGCAAAGUGGCUGUGGAUAGACUGCCUCUCUGGAUUCCUCGUCACUCAGCAGGGCAUCUCUGAGAGAAAUGCC", "self-cleavage": 0},
      {"variant": "AACGUAGGUGGUUUUCCCCUGAUAGUGCUAAGGGGGCCUGGAAGUUUGGACUGGGCAGAGCUCAACACAGCGUGGCAAAGUGGCUGUGGCUAGACUGCCUCUCUGGAUUCCUCGUCACCCAGCAGGGCAUCUCUGAGAGAAAUGCC", "self-cleavage": 1.73},
      {"variant": "CACGUAGGUGGUUUUCCCCUGAUAGUGCUAAGGGGGCCUGGAAGUUUGGACUGGGCAGAGCUCAACACAGCGUGGCAAAGUGGCUGUGGCUAGACUGCCUCUCUGGAUUCCUCGUCACUCAGCAGGGCAUCUCUGGGAGAAAUGCC", "self-cleavage": 1.08},
      {"variant": "CACGUAGGUGGUUUUCCCCUGAUAGUGCUAAGGGGGCCUGGAAGUUUGGACUGGGCAGAGCUCAACACAGCGUGGCAAAGUGGCUGUGGCUAGACUGCCUCUCUGGAUUCCUCGUCUCUCAGCAGGGCAUCUCUGAGAGAAAUGCC", "self-cleavage": 0.89},
      {"variant": "CACGUAGGUGGUUUUCCCCUGAUAGUGCUAAGGGGGCCUGGAAGUUUGGACUGGGCAGAGCUCAACACAGCGUGGCAAAGUGGCUGUGGCUAGACUGCCUCUCUGGAUUCCUCGUCGCUCAGCAGGGCAUCUCUGAGAGAAAUGCC", "self-cleavage": 0.73},
      {"variant": "CACGUAGGUGGUUUUCCCCUGAUAGUGCUAAGGGGGCCUGGAAGUUUGGACUGGGCAGAGCUCAACACAGCGUGGCACAGUGGCUGUGGCUAGACUGCCUCUCUGGAUUCCUCGUCACUCAGCAGGGCAUCUCUGAGAGAAAUGCC", "self-cleavage": 1.46},
      {"variant": "CACGUAGGUGGUUUUCCCCUGAUAGUGCUAAGGGGGCCUGGAAGUUUGGACUGGGCAGAGCUCAACACAGCGUGGCAGAGUGGCUGUGGCUAGACUGCCUCUCUGGAUUCCUCGUCACUCAGCAGGGCAUCUCUGAGAGAAAUGCC", "self-cleavage": 1.38},
      {"variant": "CACGUAGGUGGUUUUCCCCUGAUAGUGCUAAGGGGGCCUGGGAGUUUGGACUGGGCAGAGCUCAACACAGCGUGGCAAAGUGGCUGUGGCUAGACUGCCUCUCUGGAUUCCUCGUCACUCAGCAGGGCAUCUCUGAGAGAAAUGCC", "self-cleavage": 0.92},
      {"variant": "CACGUAGGUGGUUUUCCCCUGAUAGUGCUAAGGGGGCCUGGAAGUUUGGACUGGGCAGAGCUCAACACAGCGUGGCAAAGUGGCUGUGGCUAGACUGCCUCUCUGGAUUCCUCGUCACUCAGCAGGGCAUCUCUGAGUGAAAUGCC", "self-cleavage": 0.57},
      {"variant": "CACGUAGGUGGUUUUCCCCUGAUAGUGCUAUGGGGGCCUGGAAGUUUGGACUGGGCAGAGCUCAACACAGCGUGGCAAAGUGGCUGUGGCUAGACUGCCUCUCUGGAUUCCUCGUCACUCAGCAGGGCAUCUCUGAGAGAAAUGCC", "self-cleavage": 0.61},
      {"variant": "CACGUAGGUGGUUUUCCCCUGAUAGUGCUAAGGGGGCCUGGAAGUUUGGACUGGGCAGAGCUCAACACAGCGUGGCAAAGUGGCUGUGGCUAGACUGCCUCUCUGGAUUCCUCGUAACUCAGCAGGGCAUCUCUGAGAGAAAUGCC", "self-cleavage": 1.42},
      {"variant": "AACGUAGGUGGUUUUCCCCUGAUAGUGCUAAGGGGGCCUGGAAGUUUGGACUGGGCAGAGCUCAACACAGCGUGGCAAAGUGGCUGUGGCUAGACUGCCUCUCUGGAUUCCUCGCCACUCAGCAGGGCAUCUCUGAGAGAAAUGCC", "self-cleavage": 1.3},
      {"variant": "AACGUAGGUGGUUUUCCCCUGAUAGUGCUAAGGGGGCCUGGAAGUUUGGACUGGGCAGAGCUCAACACAGCGUGGCAAAGUGGCUGUGGCUAGACUGCCUCUCUGGAUUCCUCGACACUCAGCAGGGCAUCUCUGAGAGAAAUGCC", "self-cleavage": 1.1},
      {"variant": "CACGUAGGUGGUUUUCCCCUGAUAGUGCUAAGGGGGCCUGGAAGUUUGGACUGGGCAGAGCUCAACACAGCGUGGUAAAGUGGCUGUGGCUAGACUGCCUCUCUGGAUUCCUCGUCACUCAGCAGGGCAUCUCUGAGAGAAAUGCC", "self-cleavage": 1.56},
      {"variant": "CACGUAGGUGGUUUUCCCCUGAUAGUGCUAAGGGGGCCUGGAAGUUUGGACUGGGCUGAGCUCAACACAGCGUGGCAAAGUGGCUGUGGCUAGACUGCCUCUCUGGAUUCCUCGUCACUCAGCAGGGCAUCUCUGAGAGAAAUGCC", "self-cleavage": 0.09},
      {"variant": "CACGUAGGUGGUUUUCCCCUGAUUGUGCUAAGGGGGCCUGGAAGUUUGGACUGGGCAGAGCUCAACACAGCGUGGCAAAGUGGCUGUGGCUAGACUGCCUCUCUGGAUUCCUCGUCACUCAGCAGGGCAUCUCUGAGAGAAAUGCC", "self-cleavage": 1.2},
      {"variant": "CACGUAGGUGGUUUUCCCCUGAUAGUGCUAAGGGGGCCUGGAAGUUUGGAUUGGGCAGAGCUCAACACAGCGUGGCAAAGUGGCUGUGGCUAGACUGCCUCUCUGGAUUCCUCGUCACUCAGCAGGGCAUCUCUGAGAGAAAUGCC", "self-cleavage": 0.71},
      {"variant": "CACGUAGGUGGUUUUCCCCUGAUAGUGCUAAGGGGGCCUGGAAGUUUGGACUGGGCAGAGCUCAACACAGCGUGGCCAAGUGGCUGUGGCUAGACUGCCUCUCUGGAUUCCUCGUCACUCAGCAGGGCAUCUCUGAGAGAAAUGCC", "self-cleavage": 1.02},
      {"variant": "CACGUAGGUGGUUUUCCCCUGAUAGUGCUAAGGGGGCCUGGAAGUUUGGACUGGGCAGAGCUCAACAUAGCGUGGCAAAGUGGCUGUGGCUAGACUGCCUCUCUGGAUUCCUCGUCACUCAGCAGGGCAUCUCUGAGAGAAAUGCC", "self-cleavage": 0.13},
      {"variant": "CACGUAGGUGGUUUUCUCCUGAUAGUGCUAAGGGGGCCUGGAAGUUUGGACUGGGCAGAGCUCAACACAGCGUGGCAAAGUGGCUGUGGCUAGACUGCCUCUCUGGAUUCCUCGUCACUCAGCAGGGCAUCUCUGAGAGAAAUGCC", "self-cleavage": 0.87},
      {"variant": "CACGUAGGUGGUUUUCCCCUGAUAGUGCUAAGGGGGCCUGGAUGUUUGGACUGGGCAGAGCUCAACACAGCGUGGCAAAGUGGCUGUGGCUAGACUGCCUCUCUGGAUUCCUCGUCACUCAGCAGGGCAUCUCUGAGAGAAAUGCC", "self-cleavage": 0.75},
      {"variant": "CACGUAGGUGGUUUUCCCCUGAUAGUGCUAAGGGGGCCUGGAGGUUUGGACUGGGCAGAGCUCAACACAGCGUGGCAAAGUGGCUGUGGCUAGACUGCCUCUCUGGAUUCCUCGUCACUCAGCAGGGCAUCUCUGAGAGAAAUGCC", "self-cleavage": 0.79},
      {"variant": "CACGUAGGUGGUUUUCCCCUGAUAGUGCUAAGGGGGCCUGGACGUUUGGACUGGGCAGAGCUCAACACAGCGUGGCAAAGUGGCUGUGGCUAGACUGCCUCUCUGGAUUCCUCGUCACUCAGCAGGGCAUCUCUGAGAGAAAUGCC", "self-cleavage": 0.37},
      {"variant": "CACGUAGGUGGUUUUCCCCUGAUAGUGCUAAGGGGGCCUGGAAGUUUGGACUGGGCAGAGCUCGACACAGCGUGGCAAAGUGGCUGUGGCUAGACUGCCUCUCUGGAUUCCUCGUCACUCAGCAGGGCAUCUCUGAGAGAAAUGCC", "self-cleavage": 0.2},
      {"variant": "CACGUAGGUGGUUUUCCCCUGAUAGUGCUAAGGGGGCCUGGAAGUUUGGACUGGGCAGAGCUCUACACAGCGUGGCAAAGUGGCUGUGGCUAGACUGCCUCUCUGGAUUCCUCGUCACUCAGCAGGGCAUCUCUGAGAGAAAUGCC", "self-cleavage": 0.29},
      {"variant": "CACGUAGGUGGUUUUCCCCUGAUAGUGCUAAGGGGGCCUGGAAGUUUGGACUGGGCAGAGCUCAACACAGCGUGGCAAAGUGGCUGUGGCUAGACUGCCUCUCUGGAUUCCUCGUCACUCAGCAGGGCAUCUCUGAGAGAUAUGCC", "self-cleavage": 0.71},
      {"variant": "CACGUAGGUGGUUUUCCCCUGAUAGUGCUAAGGGGGCCUGGAAGUUUGGACUGGGCAGAGCUCAACACAGCGUGGCAAAGUGGCUGUGGCUAGACUGCCUCUCUGGAUUCCUCGUCACUCAGCAGGGCAUCUCUGAGAGAGAUGCC", "self-cleavage": 0.97},
      {"variant": "CACGUAGGUGGUUUUCCCCUGAUAGUGCUAAGGGGGCCUGGAAGUUUGGACUGGGCAGAGCUCAACACAGCGUGGCAAAGUGGCUGUGGCUAGACUGCCUCUCUGGAUUCCUCGUCACUCAGCAGGGCAUCUUUGAGAGAAAUGCC", "self-cleavage": 1.16},
      {"variant": "CACGUAGGUGGUUUUCCCCUGAUAGUGCUAAGGGGGCCUGGAAGUUUGGACUGGGCAGAGCUCAACCCAGCGUGGCAAAGUGGCUGUGGCUAGACUGCCUCUCUGGAUUCCUCGUCACUCAGCAGGGCAUCUCUGAGAGAAAUGCC", "self-cleavage": 0.09},
      {"variant": "CACGUAGGUGGUUUUCCCCUGAUAGUGCUAAGGGGGCCUGGAAGUUUGGACUGGGCAGAGCUCAACACAGCGUGGCAAAGUGGCUGUGGCUAGACUGUCUCUCUGGAUUCCUCGUCACUCAGCAGGGCAUCUCUGAGAGAAAUGCC", "self-cleavage": 0.13},
      {"variant": "CACGUAGGUGGUUUUCCCCUGAUAGUGCUAAGGGGGCCUGGAAGUUUGGACUGGGCAGAGCUUAACACAGCGUGGCAAAGUGGCUGUGGCUAGACUGCCUCUCUGGAUUCCUCGUCACUCAGCAGGGCAUCUCUGAGAGAAAUGCC", "self-cleavage": 0.24},
      {"variant": "CACGUAGGUGGUUUUCCCCUGAUAGUGCUAAGGGGGCCUGGAAGUUUGGACUGGGCAGGGCUCAACACAGCGUGGCAAAGUGGCUGUGGCUAGACUGCCUCUCUGGAUUCCUCGUCACUCAGCAGGGCAUCUCUGAGAGAAAUGCC", "self-cleavage": 0.1},
      {"variant": "CACGUAGGUGGUUUUCCCCUGAUAGUGCUAAGGGGGCCUGGAAGUUUGGACUGGGCAGUGCUCAACACAGCGUGGCAAAGUGGCUGUGGCUAGACUGCCUCUCUGGAUUCCUCGUCACUCAGCAGGGCAUCUCUGAGAGAAAUGCC", "self-cleavage": 0.56},
      {"variant": "CACGUAGGUGGUUUUCCCCUGAUAGUGCUAAGGGGGCCUGGAAGUUUGGACUGGGCAGAGCUCAACACAGCGUGGCAAAGUGGCUGUGGCUAGACUGCCUCUCUGGAUUCCUCGUCACUCAGCAGGGCAUCUCUGAGAGAAAUGCU", "self-cleavage": 1.08},
      {"variant": "CACGUAGGUGGUUUUCCCCUGAUAGUGCUAAGGGGGCCUGGAAGUUUGGACUGGGCAGAGCUCAACACAGCGUGGCAAAGUGGCUGUGGCUGGACUGCCUCUCUGGAUUCCUCGUCACUCAGCAGGGCAUCUCUGAGAGAAAUGCC", "self-cleavage": 0.14},
      {"variant": "CACGUAGGUGGUUUUCCCCUGAUAGUGCUAAGGGGGCCUGGAAGUUUGGACUGGGCAGAGCUCAACACAGCGUGGCAAAGUGGCUGUGGCUAGACUGCCUCUCUGGAUUCCUCGUCACUCAGCUGGGCAUCUCUGAGAGAAAUGCC", "self-cleavage": 1.07},
      {"variant": "CACGUAGGUGGUUUUCCCCUGAUAGUGCUAAGGGGGCCUGGAAGUUUGGACUGGGCAGAGCUCAACACAGCGUGGCAAUGUGGCUGUGGCUAGACUGCCUCUCUGGAUUCCUCGUCACUCAGCAGGGCAUCUCUGAGAGAAAUGCC", "self-cleavage": 2.16},
      {"variant": "AACGUAGGUGGUUUUCCCCUGAUAGUGCUAAGGGGGCCUGGAAGUUUGGACUGGGCAGAGCUCAACACAGCGUGGCAAAGUGGCUGUGGCUAGACUGCCUCUCUGGAUUCCUCGUCACUCAGCAGGGCAUCACUGAGAGAAAUGCC", "self-cleavage": 1.35},
      {"variant": "AACGUAGGUGGUUUUCCCCUGAUAGUGCUAAGGGGGCCUGGAAGUUUGGACUGGGCAGAGCUCAACACAGCGUGGCAAAGUGGCUGUGGCUAGACUGCCUCUCUGGAUUCCACGUCACUCAGCAGGGCAUCUCUGAGAGAAAUGCC", "self-cleavage": 1.2}
    ]}
  ]
}
